Earlier results on one substance are cited in paper PMC7680388.

The Kd is the constant that tells how readily two partners part at equilibrium.

This data set has as its target Ubiquitin (Homo sapiens) (UniProt P0CG48).

Rpn13, sequence (Q16186 2-407): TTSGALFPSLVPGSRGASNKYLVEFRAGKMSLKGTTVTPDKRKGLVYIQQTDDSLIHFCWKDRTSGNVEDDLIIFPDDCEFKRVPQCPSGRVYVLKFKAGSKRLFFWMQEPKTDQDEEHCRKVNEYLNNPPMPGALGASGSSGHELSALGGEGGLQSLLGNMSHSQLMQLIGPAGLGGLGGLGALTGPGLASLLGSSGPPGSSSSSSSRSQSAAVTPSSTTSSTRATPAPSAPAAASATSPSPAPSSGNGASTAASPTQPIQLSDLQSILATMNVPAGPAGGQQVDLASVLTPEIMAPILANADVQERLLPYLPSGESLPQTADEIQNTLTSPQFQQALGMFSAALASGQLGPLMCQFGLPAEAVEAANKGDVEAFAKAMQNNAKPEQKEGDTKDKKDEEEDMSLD

In the case of Rpn13 (from UniProt Q16186), the Kd was 40 µM.
